{"source": "the Human Domainome abundance scans (Beltran et al. 2025)", "parents": {"B1": {"name": "Far upstream element-binding protein 2, residues 142 to 214; numbered along this chain, Q92945 (parent)", "chain": "RTSMTEEYRVPDGMVGLIIGRGGEQINKIQQDSGCKVQISPDSGGLPERSVSLTGAPESVQKAKMMLDDIVSR"}}, "note": "± gives the uncertainty stated by the source.", "data": [{"variants_of": "B1", "assay": "abundance fitness (aPCA) (normalised: wild type 0, dead -1); higher = more abundant; growth selection in yeast, the domain comes from the species named", "settings": "Homo sapiens", "values": [{"variant": "RTSMTEEYRVPDGMVGLIIGRGGEQINKIQQDSGCKVQISPDSGGLPERSVSLKGAPESVQKAKMMLDDIVSR", "abundance fitness": "-0.16 ± 0.074"}, {"variant": "RTSMTEEYRVPDGMVGLIIGRGGEQINKIQQDSGCKVQISPDSGGLPERSVSLTGAPESVQKASMMLDDIVSR", "abundance fitness": "-0.553 ± 0.049"}, {"variant": "RTSMTEEYRVPDGMDGLIIGRGGEQINKIQQDSGCKVQISPDSGGLPERSVSLTGAPESVQKAKMMLDDIVSR", "abundance fitness": "-0.217 ± 0.081"}, {"variant": "RTSMTEEYRVPDGMVGLIIGRGGEQINKITQDSGCKVQISPDSGGLPERSVSLTGAPESVQKAKMMLDDIVSR", "abundance fitness": "-0.17 ± 0.053"}, {"variant": "RTSMTEEYRVPDGMVGLVIGRGGEQINKIQQDSGCKVQISPDSGGLPERSVSLTGAPESVQKAKMMLDDIVSR", "abundance fitness": "-0.158 ± 0.041"}, {"variant": "RTSMTEEYRVPDGMVGLIIGRGGEQINKIQQDSGCKVQISPDSGGLPERSVRLTGAPESVQKAKMMLDDIVSR", "abundance fitness": "0.01 ± 0.036"}, {"variant": "RTSMTEEYRVPDGMVGLIIGRGGEQINKIQQDSGCKVQISPDSGGLPERSVHLTGAPESVQKAKMMLDDIVSR", "abundance fitness": "0.043 ± 0.075"}, {"variant": "RTSMTEEYRVPDGPVGLIIGRGGEQINKIQQDSGCKVQISPDSGGLPERSVSLTGAPESVQKAKMMLDDIVSR", "abundance fitness": "-0.898 ± 0.063"}, {"variant": "RTSMTEEYRVPDGLVGLIIGRGGEQINKIQQDSGCKVQISPDSGGLPERSVSLTGAPESVQKAKMMLDDIVSR", "abundance fitness": "-0.048 ± 0.04"}, {"variant": "RTSMTEEYRVPDGMVGLIIGQGGEQINKIQQDSGCKVQISPDSGGLPERSVSLTGAPESVQKAKMMLDDIVSR", "abundance fitness": "-0.015 ± 0.045"}, {"variant": "RTSMTEEYRVPDGMVILIIGRGGEQINKIQQDSGCKVQISPDSGGLPERSVSLTGAPESVQKAKMMLDDIVSR", "abundance fitness": "-0.994 ± 0.12"}, {"variant": "RTSMTEEYRVPDGMVGLIIGRGGEQINKIQQDSGCKVQISNDSGGLPERSVSLTGAPESVQKAKMMLDDIVSR", "abundance fitness": "-0.141 ± 0.083"}, {"variant": "RTSMTEEYRVPDGMVGLIIGRGGEQINKIQQDSGCKVQISPDSGGLPERSVSLTGAPESVQKAKMMLDWIVSR", "abundance fitness": "-0.321 ± 0.057"}, {"variant": "RTSMTEEYRVPDGMVGLIIGRGGEQINKHQQDSGCKVQISPDSGGLPERSVSLTGAPESVQKAKMMLDDIVSR", "abundance fitness": "-0.984 ± 0.11"}, {"variant": "RTSMTEEYRVPSGMVGLIIGRGGEQINKIQQDSGCKVQISPDSGGLPERSVSLTGAPESVQKAKMMLDDIVSR", "abundance fitness": "0.054 ± 0.048"}, {"variant": "RTSMTECYRVPDGMVGLIIGRGGEQINKIQQDSGCKVQISPDSGGLPERSVSLTGAPESVQKAKMMLDDIVSR", "abundance fitness": "-0.178 ± 0.051"}, {"variant": "RTSMTETYRVPDGMVGLIIGRGGEQINKIQQDSGCKVQISPDSGGLPERSVSLTGAPESVQKAKMMLDDIVSR", "abundance fitness": "0.046 ± 0.045"}, {"variant": "RTSMTEEYRVPDGMVGLIIGRPGEQINKIQQDSGCKVQISPDSGGLPERSVSLTGAPESVQKAKMMLDDIVSR", "abundance fitness": "-0.572 ± 0.056"}, {"variant": "RTSMTEEYRVPDGMVGLIIGRWGEQINKIQQDSGCKVQISPDSGGLPERSVSLTGAPESVQKAKMMLDDIVSR", "abundance fitness": "-0.308 ± 0.051"}, {"variant": "RTSMTEEYRVPDGMVGLIIGRRGEQINKIQQDSGCKVQISPDSGGLPERSVSLTGAPESVQKAKMMLDDIVSR", "abundance fitness": "-0.032 ± 0.039"}, {"variant": "RTSMTEEYRVPDGMVGLIIGRVGEQINKIQQDSGCKVQISPDSGGLPERSVSLTGAPESVQKAKMMLDDIVSR", "abundance fitness": "-0.312 ± 0.047"}, {"variant": "RTSMTEEYRVPDGMVGLIIGRGGEQINKIQQDSGCKVQISPDSGGLPERSVSLTGAPESVQKAKMMLDDICSR", "abundance fitness": "-0.052 ± 0.064"}, {"variant": "RTSMTEEYRVPDGMVGLIQGRGGEQINKIQQDSGCKVQISPDSGGLPERSVSLTGAPESVQKAKMMLDDIVSR", "abundance fitness": "-0.105 ± 0.061"}, {"variant": "RTSMTEEYRVPDGMVGLIIGRGGEQINKIQQDSGCKVQISPDSGGLPERSVSLTGAPESVQKAKMDLDDIVSR", "abundance fitness": "-0.529 ± 0.072"}, {"variant": "RTSMTEEYRVPDGMVGLIIGRGGEQINKIQQDSGCKVQISPDSGGLPERSVSLTGAPESRQKAKMMLDDIVSR", "abundance fitness": "-0.016 ± 0.037"}, {"variant": "RTSMTEEYRVPDGMVGLIIGRGGEQINKIQQDSGCKVQIGPDSGGLPERSVSLTGAPESVQKAKMMLDDIVSR", "abundance fitness": "-0.042 ± 0.037"}, {"variant": "RTSMTEEYRVPDGMVGLIIGRGGEQINKIQQDSGCKVQIYPDSGGLPERSVSLTGAPESVQKAKMMLDDIVSR", "abundance fitness": "-0.187 ± 0.089"}, {"variant": "RTSMTEEYRVPDGMVGLIIGRGGEQINKIQQDSGCKVQISPDSGGLPERLVSLTGAPESVQKAKMMLDDIVSR", "abundance fitness": "-0.067 ± 0.045"}, {"variant": "RTSMTEEYRVPDGMVGLIIGRGGEQINKIQHDSGCKVQISPDSGGLPERSVSLTGAPESVQKAKMMLDDIVSR", "abundance fitness": "-0.005 ± 0.087"}, {"variant": "RTSMTEEYRVPDFMVGLIIGRGGEQINKIQQDSGCKVQISPDSGGLPERSVSLTGAPESVQKAKMMLDDIVSR", "abundance fitness": "-0.184 ± 0.091"}, {"variant": "RTSMTEEYRVPDKMVGLIIGRGGEQINKIQQDSGCKVQISPDSGGLPERSVSLTGAPESVQKAKMMLDDIVSR", "abundance fitness": "0.066 ± 0.055"}, {"variant": "RTSMTEEYDVPDGMVGLIIGRGGEQINKIQQDSGCKVQISPDSGGLPERSVSLTGAPESVQKAKMMLDDIVSR", "abundance fitness": "-0.155 ± 0.059"}, {"variant": "RTSMTEEYRVPDGMVGLIIGRGGEQINKIQQDSGCKVQISPDSGGLPERSVSLTGAPESVQKAKMMLDDIVKR", "abundance fitness": "-0.048 ± 0.062"}, {"variant": "RTSMTEEYRVPDGMVGLIIGRGGEQINKIQQDSGLKVQISPDSGGLPERSVSLTGAPESVQKAKMMLDDIVSR", "abundance fitness": "-0.787 ± 0.06"}, {"variant": "RTSMTEEYRVPDGMVGLIIGRGPEQINKIQQDSGCKVQISPDSGGLPERSVSLTGAPESVQKAKMMLDDIVSR", "abundance fitness": "-0.314 ± 0.059"}, {"variant": "RTSMTEEYRVPDGMVGLIIGRGVEQINKIQQDSGCKVQISPDSGGLPERSVSLTGAPESVQKAKMMLDDIVSR", "abundance fitness": "-0.257 ± 0.047"}, {"variant": "RTSMTEEYRVVDGMVGLIIGRGGEQINKIQQDSGCKVQISPDSGGLPERSVSLTGAPESVQKAKMMLDDIVSR", "abundance fitness": "-0.425 ± 0.052"}, {"variant": "RTSMTEEYRVPDGMVGLIIGRGGEQIRKIQQDSGCKVQISPDSGGLPERSVSLTGAPESVQKAKMMLDDIVSR", "abundance fitness": "0.017 ± 0.035"}]}]}
